Consider two proteins from patent publication US20090124546A1 (EBERHARD KARLS UNIVERSITAET TUEBINGEN UNIVERSITAETSKILINIKUM, published 2009).

This data set concerns the molecule itself. Briefly: SDS-PAGE and Western blot of synthetic peptide (self-association). The method, then: Western blot analysis. After physical exercise sweat of the forehead was collected and analyzed by Western blot as already described (Rieg, S. et al. 2006 J. Investig. Dermatol. 126:354-365). Briefly, sweat was centrifuged 3 min at 13,000 rpm (16,000×g) to remove particles and frozen. Then, 15-μl portions of the samples and 4 μg of the DCD peptides LEK-45 and DCD-1L dissolved in water were separated by sodium dodecyl sulfate-polyacrylamide gel electrophoresis (using 15% acrylamide with 0.05% bisacrylamide), transferred electrophoretically (1200 mA/h) onto polyvinylidene difluoride membrane sheets (Immobilon-PSQ; Millipore, Germany) with a tank type blotter and then blocked in 10% nonfat milk in PBS (pH 7.4) for 30 min at room temperature. After incubation with a rabbit polyclonal anti-DCD antibody (1:2,000) that detects the C terminus of DCD-1L overnight at 4° C., the membrane sheets were washed with phosphate buffer and incubated with an anti-rabbit secondary biotin-conjugated polyclonal antibody (1:1,500 in blocking solution). After washing in phosphate buffer the Streptavidin-AP-conjugate (Roche, Mannheim, Germany) was used for the detection of biotin-labeled secondary antibody. The membrane was immersed in CDP-Star solution (Western Lightning chemiluminescence reagents for AP; Roche) for 10 min and then exposed to X-ray film (Eastman Kodak, Rochester, N.Y.).

B1: LEK-45 (peptide)
peptide: LEKGLDGAKKAVGGLGKLGKDAVEDLESVGKGAVHDVKDVLDSVL
Consider B1, for which the binding result is listed as “binds”.

B2: DCD-1L (peptide)
peptide: SSLLEKGLDGAKKAVGGLGKLGKDAVEDLESVGKGAVHDVKDVLDSVL
notes: also called synthetic peptide DCD-1L
Take B2: the binding result is “binds”.
